Laboratory results: publication PMC5506079, “Neodymium-140 DOTA-LM3: Evaluation of an In Vivo Generator for PET with a Non-Internalizing Vector” (Frontiers in Medicine, 2017)

Experiments:
[1] = test system: NCI-H727 tumor bearing mice; test: Small animal PET/CT tissue quantification, pre-mortem (16 h) and post-mortem; assay type: in vivo, female NMRI nude mice; conditions: for Tumor post-mortem PET signal: mean ± spread over tumors; for Tumor partial volume corrected PET signal (PVC-PET): post-mortem PET divided by S(V); for Kidney PM PET tissue signal / L. tumor PM PET tissue signal / Liver PM PET tissue signal / Lung PM PET tissue signal / Muscle PM PET tissue signal / Pancreas PM PET tissue signal / R. tumor PM PET tissue signal: post mortem scan after 16 h, 3.3–4.3 MBq i.v.
Procedure: (§1) NCI-H727 lung carcinoid cancer cells (ATCC CRL-5815, LGC Standards) were cultured in RPMI-1640 media supplemented with 10% fetal bovine serum and 1% penicillin-streptomycin (Invitrogen) at 37° C and 5% CO2. Cells in their exponential growth phase and at 80–90% confluence were harvested by trypsinization and resuspended in 1:1 media and matrigel (BD Biosciences) at 5 × 10^7 cells/mL. Subcutaneous tumors were established in female NMRI nude mice (Taconic, Denmark) by inoculation of 5 × 10^6 cells in 100 µL on each flank above the hind limbs in the subcutaneous space. All animal experiments were performed under a protocol approved by the National Animal Experiments Inspectorate of Denmark.
Longitudinal small animal PET/CT imaging (Inveon Multimodality PET/CT scanner, Siemens) was performed with NCI-H727 tumor bearing mice injected intravenously with 3.3–4.3 MBq ^140Nd-DOTA-LM3 (n = 8) or 2.7–3.1 MBq ^140Nd-chloride (n = 3) in 150 µL. Mice were anesthetized with sevoflurane (Abbott Laboratories) during injection and PET/CT imaging. PET data was acquired for 600 s in list mode at 1, 3, and 16 h after injection. The mice were sacrificed after the 16 h time-point and a PET acquisition was performed 2 h post-mortem. Images were reconstructed using a 3D maximum a posteriori algorithm with CT based attenuation correction. CT images were acquired with the following settings: 300 projections, 65 kV, 500 µA, and 400 ms exposure, and reconstructed with an isotropic voxel size of 105 µm. Image analysis was performed using the Inveon Software (Siemens). Region of interests (ROIs) were drawn manually over the tumor regions and other organs based on the CT images and the uptake of ^140Nd-DOTA-LM3 or ^140Nd-chloride quantified as % injected dose per gram tissue (%ID/g).
Throughout the text we have used a unit, %IS/g, to denote the “percent of injected annihilation signal per gram tissue”. This is in contrast to the common unit, %ID/g (percent of injected dose per gram), which is typically used to report relative radiotracer concentrations. We made the decision to change units for two reasons: first because the EC-delayed positron is not guaranteed to be emitted at the same location as the initial EC decay; and second, because the abnormally high energy of positrons emitted in the decay of ^140Pr leads to large partial volume effects which alter the relationship between the decay distribution and the annihilation distribution.
Using the partial volume correction factor S(V), as a function of ROI volume, the PET quantifications from the manuscript can be rescaled. The results are shown in table S1 compared to the ex vivo biodistribution data. […] A more complete approach to the partial volume correction may lead to better agreement for the PET and well-counter data.

[2] = test system: NCI-H727 tumor bearing mice; test: Conventional ex vivo biodistribution (gamma counter); assay type: in vivo, female NMRI nude mice; conditions: for Tumor ex-vivo well counter: 16 h after injection
Procedure: as §1
Conventional ex vivo biodistribution was performed after the post-mortem scan. Tumors and organs were resected, weighted and the radioactivity was counted in a gamma counter (Wizard^2, PerkinElmer).

[3] = HPLC verification of de-labeling of ^140Pr from DOTA-LM3; assay type: physicochemical; conditions: reverse-phase C-18 radio-HPLC trace vs LSC of fractions
Procedure: Samples of ^140Nd-DOTA-LM3 were injected onto a reverse-phase C-18 (Luna 3uC18(2)(n) 100 A 100 × 2 mm 3 μm, Phenomenex) column at a flow rate of 0.5 mL/min starting from 0% acetonitrile in water, and reaching 100% over a 15 min gradient. Elution was monitored with a radio detector. The entire effluent was collected in 1 min intervals (500 µL each) and quantified 4 days after collection by liquid scintillation counting on a HIDEX 300 SL spectrometer.

1,4,7,10- tetraazacyclododecane, 1,4,7- tri acetic acid, 10- acetamide N - p-Cl-Phecyclo(d-Cys-Tyr-d-4-amino-Phe(carbamoyl)-Lys-Thr-Cys)d-Tyr-NH2 (disulfide) [^140Nd-DOTA-LM3, ^140Nd reacted with the somatostatin analogue DOTA-LM3, a non-internalizing vector; the printed name is that of unlabeled DOTA-LM3]
Tumor post-mortem PET signal ([1]; 2.5MBq/nmol): 0.19 ±0.07 %IS/g | Tumor partial volume corrected PET signal (PVC-PET) ([1]; 2.5MBq/nmol): 1.5 ±0.4 %ID/g | Tumor post-mortem PET signal ([1]; 5MBq/nmol): 0.40 ±0.15 %IS/g | Tumor partial volume corrected PET signal (PVC-PET) ([1]; 5MBq/nmol): 3.0 ±1.0 %ID/g | Fraction of in situ produced ^140Pr washed out of the pancreas before decay ([1]; higher specific activity (5 MBq/nmol), pre- vs post-mortem PET at 16 h, n = 4, mean ± SD): 56 ± 7% | Kidney PM PET tissue signal ([1]; subject 1, 5 MBq/nmol): 1.41 %IS/g | L. tumor PM PET tissue signal ([1]; subject 1, 5 MBq/nmol): 0.38 %IS/g | Liver PM PET tissue signal ([1]; subject 1, 5 MBq/nmol): 0.21 %IS/g | Lung PM PET tissue signal ([1]; subject 1, 5 MBq/nmol): 0.06 %IS/g | Muscle PM PET tissue signal ([1]; subject 1, 5 MBq/nmol): 0.08 %IS/g | Pancreas PM PET tissue signal ([1]; subject 1, 5 MBq/nmol): 1.79 %IS/g | R. tumor PM PET tissue signal ([1]; subject 1, 5 MBq/nmol): 0.29 %IS/g | Kidney PM PET tissue signal ([1]; subject 2, 5 MBq/nmol): 1.26 %IS/g | L. tumor PM PET tissue signal ([1]; subject 2, 5 MBq/nmol): 0.35 %IS/g | Liver PM PET tissue signal ([1]; subject 2, 5 MBq/nmol): 0.17 %IS/g | Lung PM PET tissue signal ([1]; subject 2, 5 MBq/nmol): 0.08 %IS/g | Muscle PM PET tissue signal ([1]; subject 2, 5 MBq/nmol): 0.07 %IS/g | Pancreas PM PET tissue signal ([1]; subject 2, 5 MBq/nmol): 2.12 %IS/g | R. tumor PM PET tissue signal ([1]; subject 2, 5 MBq/nmol): 0.41 %IS/g | Kidney PM PET tissue signal ([1]; subject 3, 5 MBq/nmol): 1.76 %IS/g | L. tumor PM PET tissue signal ([1]; subject 3, 5 MBq/nmol): 0.68 %IS/g | Liver PM PET tissue signal ([1]; subject 3, 5 MBq/nmol): 0.25 %IS/g | Lung PM PET tissue signal ([1]; subject 3, 5 MBq/nmol): 0.08 %IS/g | Muscle PM PET tissue signal ([1]; subject 3, 5 MBq/nmol): 0.06 %IS/g | Pancreas PM PET tissue signal ([1]; subject 3, 5 MBq/nmol): 2.56 %IS/g | R. tumor PM PET tissue signal ([1]; subject 3, 5 MBq/nmol): 0.44 %IS/g | Kidney PM PET tissue signal ([1]; subject 4, 5 MBq/nmol): 1.15 %IS/g | L. tumor PM PET tissue signal ([1]; subject 4, 5 MBq/nmol): 0.24 %IS/g | Liver PM PET tissue signal ([1]; subject 4, 5 MBq/nmol): 0.12 %IS/g | Lung PM PET tissue signal ([1]; subject 4, 5 MBq/nmol): 0.04 %IS/g | Muscle PM PET tissue signal ([1]; subject 4, 5 MBq/nmol): 0.06 %IS/g | Pancreas PM PET tissue signal ([1]; subject 4, 5 MBq/nmol): 2.26 %IS/g | R. tumor PM PET tissue signal ([1]; subject 4, 5 MBq/nmol): 0.18 %IS/g | Kidney PM PET tissue signal ([1]; subject 5, 2.5 MBq/nmol): 1.12 %IS/g | L. tumor PM PET tissue signal ([1]; subject 5, 2.5 MBq/nmol): 0.29 %IS/g | Liver PM PET tissue signal ([1]; subject 5, 2.5 MBq/nmol): 0.20 %IS/g | Muscle PM PET tissue signal ([1]; subject 5, 2.5 MBq/nmol): 0.04 %IS/g | Pancreas PM PET tissue signal ([1]; subject 5, 2.5 MBq/nmol): 0.76 %IS/g | R. tumor PM PET tissue signal ([1]; subject 5, 2.5 MBq/nmol): 0.28 %IS/g | Kidney PM PET tissue signal ([1]; subject 6, 2.5 MBq/nmol): 1.35 %IS/g | L. tumor PM PET tissue signal ([1]; subject 6, 2.5 MBq/nmol): 0.17 %IS/g | Liver PM PET tissue signal ([1]; subject 6, 2.5 MBq/nmol): 0.23 %IS/g | Lung PM PET tissue signal ([1]; subject 6, 2.5 MBq/nmol): 0.08 %IS/g | Muscle PM PET tissue signal ([1]; subject 6, 2.5 MBq/nmol): 0.03 %IS/g | Pancreas PM PET tissue signal ([1]; subject 6, 2.5 MBq/nmol): 1.71 %IS/g | R. tumor PM PET tissue signal ([1]; subject 6, 2.5 MBq/nmol): 0.07 %IS/g | Kidney PM PET tissue signal ([1]; subject 7, 2.5 MBq/nmol): 0.97 %IS/g | L. tumor PM PET tissue signal ([1]; subject 7, 2.5 MBq/nmol): 0.18 %IS/g | Liver PM PET tissue signal ([1]; subject 7, 2.5 MBq/nmol): 0.17 %IS/g | Lung PM PET tissue signal ([1]; subject 7, 2.5 MBq/nmol): 0.08 %IS/g | Muscle PM PET tissue signal ([1]; subject 7, 2.5 MBq/nmol): 0.03 %IS/g | Pancreas PM PET tissue signal ([1]; subject 7, 2.5 MBq/nmol): 0.88 %IS/g | R. tumor PM PET tissue signal ([1]; subject 7, 2.5 MBq/nmol): 0.19 %IS/g | Kidney PM PET tissue signal ([1]; subject 8, 2.5 MBq/nmol): 1.18 %IS/g | L. tumor PM PET tissue signal ([1]; subject 8, 2.5 MBq/nmol): 0.18 %IS/g | Liver PM PET tissue signal ([1]; subject 8, 2.5 MBq/nmol): 0.15 %IS/g | Lung PM PET tissue signal ([1]; subject 8, 2.5 MBq/nmol): 0.04 %IS/g | Muscle PM PET tissue signal ([1]; subject 8, 2.5 MBq/nmol): 0.03 %IS/g | Pancreas PM PET tissue signal ([1]; subject 8, 2.5 MBq/nmol): 0.82 %IS/g | R. tumor PM PET tissue signal ([1]; subject 8, 2.5 MBq/nmol): 0.18 %IS/g | Tumor ex-vivo well counter ([2]; 2.5MBq/nmol): 3.7 ±1.3 %ID/g | Tumor ex-vivo well counter ([2]; 5MBq/nmol): 6.3 ±2.3 %ID/g | Liver tissue accumulation, ex vivo biodistribution ([2]; 16 h after i.v. injection, gamma counter): 3 %ID/g | Pancreas tissue accumulation, ex vivo biodistribution ([2]; 16 h after i.v. injection, high specific activity (5.0 MBq/nmol, 0.5 nmol injected), n = 4, gamma counter): 13 % ID/g | Efficiency of release of ^140Pr from DOTA-LM3 after ^140Nd decay [3]: > 95%
